Experiment [1] has as its target T1, Human PSMA.ECD.His (Acro) (human, UniProt Q04609 44-750).
T1 construct: extracellular domain; Bought protein with His tag; also called human PSMA ECD protein; Human PSMA/FOLH1 protein, His tag
Description: ELISA, human PSMA ECD captured by anti-His antibody. For orientation: In an ELISA, binding on a coated surface is turned into a signal by an enzyme label.
Description: Plate was pre-coated with 1 μg/mL THE™ His Tag Antibody overnight in a refrigerator set to 4° C. After blocking with 200 μL of 1×PBS/2% BSA for 1 hour, the plates were washed with 1×PBST for three times, then 0.5 g/mL human PSMA ECD protein diluted in 1×PBS/2% BSA was added in a volume of 50 μL/well to the plate and incubated for 1 hour at ambient temperature. […] After washing the plates with 1×PBST for three times, 50 μL/well of HRP-labeled goat anti-human IgG antibody (1:5000 diluted in 1×PBS/2% BSA) were added into the plate and incubated for 1 hour at ambient temperature. After washing the plates with 1×PBST for six times, the color was developed by dispensing 50 μL/well of TMB substrate for 4-8 minutes, and then the reaction was stopped by adding 50 μL/well of 2M HCl. The absorbance was read at 450 nm using a microplate reader. The binding EC50 was calculated by GraphPad Prism through plotting antibody concentration (x-axis) versus OD450 value (y-axis) and analyzing as: Nonlinear regression (curve fit)-log (agonist) vs. response-Variable slope (four parameters).

Experiment [2] addresses T2, human PSMA on human prostate cancer cells (LNCaP, C4-2, 22Rv1) (human, UniProt Q04609 1-750).
T2 construct: whole, on cells; also called human PSMA-expressing LNCaP cells; C4-2 (PSMA High)
Briefly: flow cytometry on LNCaP cells. The procedure: After washing the cells twice with 1×PBS/1% BSA, Alexa fluor 647-labeled goat anti-human antibody (1:500 diluted with 1×PBS/1% BSA) was added into the cells and incubated in a refrigerator set to 4° C. for 0.5 hour in the dark. After washing the cells twice with 1×PBS/1% BSA, the mean fluorescence intensity (MFI) of the cells was measured by a flow cytometer and analyzed by FLOWJO. The binding EC50 was calculated by GraphPad Prism through plotting antibody concentration (x-axis) versus MFI (y-axis) and analyzing as: Nonlinear regression (curve fit)-log (agonist) vs. response-Variable slope (four parameters).

Experiment [3] concerns the target T3, Mouse PSMA.ECD.His (Acro) (mouse, UniProt O35409 45-752).
T3 construct: extracellular domain; Bought protein with His tag; also called mouse PSMA protein (His tag); Mouse PSMA/FOLH1 protein, His tag
Briefly: ELISA, coated mouse PSMA protein (His tag). Here is the method:
Briefly, 2 μg/mL mouse PSMA protein (His tag) were coated onto well in ELISA plate in coating buffer for 16 hours in a refrigerator set to 4° C. After washing plate once time with 1×PBST, 200 μL/well 2% BSA were added into wells and incubated for one hour at ambient temperature. […] After washing six times with 1×PBST, 100 μL/well of TMB substrate solution were added into wells and incubated for 5 minutes in dark and then 100 μL/well of 2M HCL were added into wells to stop the reaction. The relative light unit (RLU) were measured at OD450 and OD540 by SPECTRAMAX M5E. EC50 was determined as described above.

In experiment [4] the target is T4, Cyno PSMA.ECD.His (Acro) (cynomolgus, UniProt A0A2K5VNZ0 44-750).
T4 construct: extracellular domain; Bought protein with His tag; also called cynomolgus PSMA ECD protein; Cynomolgus PSMA/FOLH1 protein, His tag
Briefly: SPR (Biacore 8K), antibody captured by anti-human IgG Fc, PSMA injected, 1:1 model. The procedure:
(§1) Each antibody was captured on an anti-human IgG Fc antibody immobilized CM5 sensor chip (Cytiva). Human and cynomolgus PSMA at different concentrations were injected over the sensor chip at a flow rate of 30 μL/min for an association phase of 120-180 s, followed by 600-3600 s dissociation. The chip was regenerated by 10 mM glycine (pH 1.5) after each binding cycle.
(§2) The sensorgrams of blank surface and buffer channel were subtracted from the test sensorgrams. The experimental data was fitted by 1:1 binding model. Molecular weight of 81.4 and 82.7 kDa were used to calculate the molar concentration of human and cynomolgus PSMA.
(In general: SPR reads the build-up and loss of mass on a sensor chip optically.)

Experiment [5] deals with T1, Human PSMA.ECD.His (Acro). Described as above. Here is the method: as §1, §2
Experiment [6] has as its target T4, Cyno PSMA.ECD.His (Acro). Description: ELISA, cynomolgus PSMA ECD captured by anti-His antibody.
Description: Plate was pre-coated with 1 μg/mL THETM His Tag Antibody overnight in a refrigerator set to 4° C. After blocking with 200 μL of 1×PBS/2% BSA for 1 hour, the plates were washed with 1×PBST for three times, then 0.5 μg/mL cynomolgus PSMA ECD protein diluted in 1×PBS/2% BSA was added in a volume of 50 μL/well to the plate and incubated for 1 hour at ambient temperature. […] After washing the plates with 1×PBST for three times, 50 μL/well of HRP-labeled goat anti-human IgG antibody (1:5000 diluted in 1×PBS/2% BSA) were added into the plate and incubated for 1 hour at ambient temperature. After washing the plates with 1×PBST for six times, the color was developed by dispensing 50 μL/well of TMB substrate for 4-8 minutes, and then the reaction was stopped by adding 50 μL/well of 2M HCl. The absorbance was read at 450 nm using a microplate reader. EC50 was determined as described above.
The target in experiment [7] is T5, full-length cynomolgus PSMA on Flp-in CHO cells (WBP3xx042-FlpinCHO.cPro1.B7) (cynomolgus, UniProt A0A2K5VNZ0 1-750).
T5 construct: whole, on cells; also called Cyno PSMA+ CHO cells; FlpInCHO-cyno PSMA
Description: flow cytometry on cynomolgus PSMA-expressing CHO cells. Here is the method: After washing the cells twice with 1×PBS/1% BSA, Alexa fluor 647-labeled goat anti-human antibody (1:500 diluted with 1×PBS/1% BSA) was added into the cells and incubated in a refrigerator set to 4° C. for 0.5 hour in the dark. After washing the cells twice with 1×PBS/1% BSA, the mean fluorescence intensity (MFI) of the cells was measured by a flow cytometer and analyzed by FLOWJO.
In general terms: Flow cytometry measures light scatter and fluorescence of single cells or particles in a stream.

One molecule from patent US20250277054A1 (WUXI BIOLOGICS IRELAND, published 2025) can be followed below.

Usually EC50 stands for the concentration giving half of the maximal effect. In general, Kd refers to the concentration at which binding is half-saturated. A high value points to a looser complex. Broadly, the koff is the first-order rate constant of dissociation. Broadly, the kon is a measure of how fast the partners come together.

T1 sequence (Q04609 44-750): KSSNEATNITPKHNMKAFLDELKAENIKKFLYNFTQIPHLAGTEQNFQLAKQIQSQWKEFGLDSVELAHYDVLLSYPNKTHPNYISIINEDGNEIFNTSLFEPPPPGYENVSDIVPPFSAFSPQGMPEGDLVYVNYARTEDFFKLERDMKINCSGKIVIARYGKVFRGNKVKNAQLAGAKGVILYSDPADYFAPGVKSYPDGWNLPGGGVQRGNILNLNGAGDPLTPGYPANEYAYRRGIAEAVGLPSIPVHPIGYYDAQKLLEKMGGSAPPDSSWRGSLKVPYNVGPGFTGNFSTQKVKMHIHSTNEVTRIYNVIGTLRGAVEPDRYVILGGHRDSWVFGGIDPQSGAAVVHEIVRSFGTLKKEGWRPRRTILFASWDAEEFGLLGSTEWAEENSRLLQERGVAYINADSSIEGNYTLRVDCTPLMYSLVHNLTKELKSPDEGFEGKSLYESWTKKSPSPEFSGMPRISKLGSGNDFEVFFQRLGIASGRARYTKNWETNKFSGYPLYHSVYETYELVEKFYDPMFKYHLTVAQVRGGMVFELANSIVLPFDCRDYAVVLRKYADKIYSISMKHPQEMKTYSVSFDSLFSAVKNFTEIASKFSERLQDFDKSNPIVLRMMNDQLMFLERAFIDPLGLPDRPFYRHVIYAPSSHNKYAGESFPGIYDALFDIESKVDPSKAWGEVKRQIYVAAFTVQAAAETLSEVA
T3 sequence (O35409 45-752): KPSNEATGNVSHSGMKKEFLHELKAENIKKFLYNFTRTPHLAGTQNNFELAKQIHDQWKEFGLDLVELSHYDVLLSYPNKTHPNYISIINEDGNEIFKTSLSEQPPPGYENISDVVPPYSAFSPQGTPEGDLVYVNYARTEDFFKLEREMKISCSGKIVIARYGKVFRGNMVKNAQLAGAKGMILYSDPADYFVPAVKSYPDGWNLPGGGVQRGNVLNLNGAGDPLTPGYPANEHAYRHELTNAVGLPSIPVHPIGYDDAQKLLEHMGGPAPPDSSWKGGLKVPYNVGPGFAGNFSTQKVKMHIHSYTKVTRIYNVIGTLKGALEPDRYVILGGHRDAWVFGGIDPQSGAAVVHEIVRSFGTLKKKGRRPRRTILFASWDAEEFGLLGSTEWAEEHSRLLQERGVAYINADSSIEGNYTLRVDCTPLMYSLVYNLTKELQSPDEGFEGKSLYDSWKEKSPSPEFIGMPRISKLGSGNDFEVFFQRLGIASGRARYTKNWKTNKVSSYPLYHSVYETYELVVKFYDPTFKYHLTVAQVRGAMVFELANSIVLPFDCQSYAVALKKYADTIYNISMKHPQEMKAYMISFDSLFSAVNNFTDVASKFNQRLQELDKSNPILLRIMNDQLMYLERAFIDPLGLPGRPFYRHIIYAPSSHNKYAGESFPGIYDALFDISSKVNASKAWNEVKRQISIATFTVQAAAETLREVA
T2 sequence (Q04609 whole entry): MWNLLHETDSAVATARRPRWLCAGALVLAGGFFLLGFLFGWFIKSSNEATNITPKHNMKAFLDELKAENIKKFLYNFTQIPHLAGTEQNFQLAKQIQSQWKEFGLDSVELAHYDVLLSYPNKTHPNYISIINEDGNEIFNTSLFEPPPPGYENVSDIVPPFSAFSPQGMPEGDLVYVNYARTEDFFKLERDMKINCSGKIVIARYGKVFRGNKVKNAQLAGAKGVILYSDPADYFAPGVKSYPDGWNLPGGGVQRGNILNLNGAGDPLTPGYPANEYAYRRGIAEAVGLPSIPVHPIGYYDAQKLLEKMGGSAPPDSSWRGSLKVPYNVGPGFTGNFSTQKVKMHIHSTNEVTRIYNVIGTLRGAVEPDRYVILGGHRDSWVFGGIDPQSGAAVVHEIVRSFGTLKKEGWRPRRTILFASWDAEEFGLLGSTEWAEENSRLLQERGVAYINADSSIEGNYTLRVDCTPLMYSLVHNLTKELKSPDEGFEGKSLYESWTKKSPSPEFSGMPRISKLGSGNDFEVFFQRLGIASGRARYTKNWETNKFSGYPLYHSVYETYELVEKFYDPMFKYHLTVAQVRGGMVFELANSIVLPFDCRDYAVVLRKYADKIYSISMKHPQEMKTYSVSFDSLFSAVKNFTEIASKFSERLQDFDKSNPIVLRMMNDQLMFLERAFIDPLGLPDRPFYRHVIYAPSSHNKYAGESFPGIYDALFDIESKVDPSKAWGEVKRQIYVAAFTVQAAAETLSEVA

B1: W305042-1.135.2-uIgG1L (antibody, V domains shown)
VH: EVQLVQSGAEVKKPGESLKISCKASGYSFTTYWIGWVRQMPGKGLELMGIIYPYDSDTRYSPSFQGQVTISADKSINTAYLQWSSLKASDTAMYYCARITGGYLFDYWGQGILVTVSS
VL: QSALTQPPSASGSPGQSVTISCTGTSSDVGGYNYVSWYQQHPGKAPKLMIYEVTKRPSGVPDRFSGSKSGNTASLTVSGLQAEDEADYYCTSYAGSNKYVFGTGTKVTVLG
notes: Fully human anti-PSMA monoclonal antibody, human IgG1 with lambda light chain; also called WBP305042; W305042-1.135.2-uIgGIL
In the case of B1, the EC50 in experiment [1] was 0.017 nM; in experiment [2], 0.25 nM; in experiment [3], 0.026 nM; in experiment [6] it was 0.006 nM; in experiment [7], 2.25 nM. Besides, the figures for the Kd in experiment [4] and in experiment [5] were 2.84 nM and 0.0294 nM, respectively. The koff is 0.000584 s⁻¹ in experiment [4] and 1.12e-05 s⁻¹ in experiment [5]. In addition, the kon in experiment [4] came to 206000 M⁻¹ s⁻¹; in experiment [5] it was 381000 M⁻¹ s⁻¹.
